Source: patent US20040022780A1, “Serine protease and topical retinoid compositions useful for treatment of acne vulgarise and production of anti-aging effects” (priority 1997, published 2004)

Assays:
C57B1/6 skin = experiment: Cutometer analysis of skin elasticity, C57B1/6 mouse; format: in vivo, C57B1/6 mice; conditions: Day 16, trypsin treated
Experimental: (§1) To quantitate this effect, a cutometer analysis was performed. We used a cutometer available from Acaderm (Menlo Park, Calif.), and employed the methods described in Couturaud et al., “Skin Biomechanical Properties: In Vivo Evaluation of Influence of Age and Body Site by a Non-Invasive Method,” 1 Skin Res. and Technol. 68-73 (1995) and Elsner et al., “Mechanical Properties of Human Forearm and Vulvar Skin,” 122 Br. J. Dermatol. 607-614 (1990) which are both incorporated herein by reference in their entirety. Suction was applied through a 2 mm aperture and the corresponding skin displacement and recovery after release of the negative pressure were measured. In human studies, an improvement in the ratios of deformation parameters Ua/Uf (skin fatigue, or total recovery from the load), Ur/Uf (biological elasticity, or elastic recovery after loading), and Ur/Ue (firmness, or improvement in the deformation resistance of the skin) indicates better tonicity and elasticity of the skin. The deformation parameters Ue, Uf, Ua, and Ur are dependent, in part, on skin thickness. Consequently, ratios were used for evaluation as described in Barel et al., “Suction Method for Measurement of Skin Mechanical Properties: The Cutometer,” Handbook of Non-Invasive Methods and the Skin 335-340 (1995) which is incorporated herein by reference in its entirety.
FIGS. 3(c) and (d), the untreated and trypsin treated skins, respectively, show the results of elastin staining.

[1] = test system: elastin fibers in Rhino mouse skin; experiment: Elastin staining of paraffin skin sections, Rhino mouse; format: in vivo; conditions: trypsin treated Rhino mice vs untreated
Description: To further study this elasticity effect, skin sections of Rhino mice from Example 1 treated with the trypsin composition of Example 2 were stained for elastin on paraffin sections in accordance with the methods set forth in Kligman, L. H., “Luna's Technique, A Beautiful Stain for Elastin,” 3(2) The Amer. J. of Dermatopathol. 199-200 (1981) which is incorporated herein by reference in its entirety.

[2] = test system: follicular epithelium of Rhino mouse skin; experiment: TUNEL stain of skin for apoptotic bodies; format: in vivo; conditions: 0.1% (w/v) trypsin daily for five days, sacrificed at day eight
Experimental: Rhino mice of Example 1 were treated daily with a 0.1% (w/v) trypsin composition of Example 2 for five days and sacrificed at day eight.
1 cm by 2 cm samples of the skins of untreated, vehicle treated, and trypsin treated mice were obtained via the procedure set forth in Example 3 then analyzed using a TdT-mediated dUTP-biotin nick end labeling (“TUNEL”) stain procedure as disclosed in Gavrieli et al., “Identification of Programmed Cell Death in situ Via Specific Labeling of Nuclear DNA Fragmentation”, 119 Jl. Cell Biology 493-501 (1992) (“Gavrieli”). During this procedure, the prepared skin sections were stained using an “ApopTag™ Plus In Situ Apoptosis Detection Kit” available from Oncor, Inc. as specified in the “ApopTag™ Plus In Situ Apoptosis Detection Kit” protocol by Oncor, Inc. (Feb. 1995), which is based upon the labeling of fragmented DNA ends as described in Gavrieli. FIGS. 5(a-d) show a histological analysis wherein the stain has a peroxidase end point (brown) and a methyl green counter-stain. The resulting representations of this are provided in FIGS. 5(a&b) which are vehicle treated and FIGS. 5(c&d) which are trypsin treated.

Rhino mouse skin [3] = experiment: Cutometer analysis of skin elasticity, Rhino mouse; format: in vivo
Experimental: as §1

[4] = test system: utriculi of Rhino mouse skin; experiment: Rhino mouse utriculus size reduction (whole mount epidermis image analysis); format: in vivo; conditions: single trypsin 1% (w/v) treatment, analyzed seven days later
Rhino mouse skin [5] = experiment: Delivery of fluorescently labeled trypsin into hair follicles (fluorescent microscopy); format: in vivo
Experimental: About 100 μL of the topically active trypsin composition of Example 2 was applied to the dorsal side of each Rhino mouse of Example 1. The trypsin used in this composition was fluorescently-labeled with a protein fluorescent labeling kit available from Molecular Probes, Inc. in accordance with its accompanying protocol (1996). At one and four hours after the application of the fluorescent trypsin treatment, a 1 cm by 2 cm sample of the skin surface of each mouse was isolated from each mouse with scissors, fixed with a 10% buffered formalin solution having a pH of about 6.9-7.1 at 25° C. available from Stephens Scientific, then formed into a paraffin block according to well-known procedures, and examined with fluorescent microscopy according to well-known methods.
This Example was repeated on similar Rhino mice of Example 1, with the exception that these mice were treated daily for 5 days with the 1% (w/v) trypsin composition of Example 2 prior to the fluorescent trypsin treatment. Four hours after the application of the fluorescent trypsin treatment on the fifth day, the skins of these mice were analyzed using similar fluorescent microscopic methods. […] This loss of barrier integrity is reflected in the values for transepidermal water loss (“TEWL”) as described in Example 4 and Table 1 herein.

B1: trypsin (protein, UniProt P00760 24-246, looked up)
Serine protease 1: IVGGYTCGANTVPYQVSLNSGYHFCGGSLINSQWVVSAAHCYKSGIQVRLGEDNINVVEGNEQFISASKSIVHPSYNSNTLNNDIMLIKLKSAASLNSRVASISLPTSCASAGTQCLISGWGNTKSSGTSYPDVLKCLKAPILSDSSCKSAYPGQITSNMFCAGYLEGGKDSCQGDSGGPVVCSGKLQGIVSWGSGCAQKNKPGVYTKVCNYVSWIKQTIASN
notes: lyophilyzed trypsin from Sigma-Aldrich, a serine protease, in Hepes buffer mixed with GDL liposomes
C57B1/6 skin
  Ua/Uf (skin fatigue, total recovery from the load): 0.675 ± 0.18
  Ur/Ue (firmness): 0.7335 ± 0.02
  Ur/Uf (biological elasticity): 0.404 ± 0.1
[1]
  elastin fibers around the utriculi and the sebaceous glands: increased in thickness and density
[2]
  apoptotic bodies within the follicular epithelium (TUNEL): elimination of all the apoptotic bodies
Rhino mouse skin [3]; Day 7, trypsin treated
  Ua/Uf (skin fatigue, total recovery from the load): 0.593 ± 0.09
  Ur/Ue (firmness): 0.557 ± 0.21
  Ur/Uf (biological elasticity): 0.359 ± 0.22
Rhino mouse skin [3]; Day 12, trypsin treated
  Ua/Uf (skin fatigue, total recovery from the load): 0.663 ± 0.10
  Ur/Ue (firmness): 0.666 ± 0.24
  Ur/Uf (biological elasticity): 0.548 ± 0.11
Rhino mouse skin [3]; Day 16, trypsin treated
  Ua/Uf (skin fatigue, total recovery from the load): 0.675 ± 0.03
  Ur/Ue (firmness): 0.733 ± 0.18
  Ur/Uf (biological elasticity): 0.404 ± 0.08
[4]
  effect on utriculus size reduction of a single treatment: no effect
Rhino mouse skin [5]; 1 hour and 4 hours after topical application of about 100 μL fluorescent trypsin composition
  location of fluorescent labeling in skin: almost all of the fluorescent labeling was found within the utriculi and sebaceous glands
Rhino mouse skin [5]; 4 hours after fluorescent trypsin, following 5 days of daily 1% (w/v) trypsin
  change in delivery route into utriculi and sebaceous glands: no major change
Rhino mouse skin [5]; following 5 days of daily 1% (w/v) trypsin
  barrier integrity (staining at outer portion of stratum corneum): some loss of barrier integrity
